# Test results as given in patent publication US12383572B2, “Administration of an anti-activin-a compound to a subject” (AMGEN INC., priority 2013, dated 2025).
# “Also recorded” adds a separate entry of the source.
# B1: sActRIIB: extracellular domain of human activin type-2B receptor fused to IgG2 Fc; full length SEQ ID NO: 21 (Table 9) (protein, listed as Homo sapiens)
# chain: ETRWCIYYNANWELERTNQSGLERCEGEQDKRLHCYASWRNSSGTIELVKKGCWLDDFNCYDRQECVATEENPQVYFCCCEGNFCNERFTHLPEAGGPEVTYEPPPTAPTGGGGSVECPPCPAPPVAGPSVFLFPPKPKDTLMISRTPEVTCVVVDVSHEDPEVQFNWYVDGVEVHNAKTKPREEQFNSTFRVVSVLTVVHQDWLNGKEYKCKVSNKGLPAPIEKTISKTKGQPREPQVYTLPPSREEMTKNQVSLTCLVKGFYPSDIAVEWESNGQPENNYKTTPPMLDSDGSFFLYSKLTVDKSRWQQGNVFSCSVMHEALHNHYTQKSLSLSPGK
# Experiments:
# [1] = TOV-21G xenograft, hu-sActRIIB-Fc alone or with 5-FU: body weight; type: in vivo, mouse; settings: TOV-21G tumor-bearing athymic nude mice
# Description: In another experiment, athymic nude mice received TOV-21G xenografts in the abdominal flank. After 14 days, subcutaneous hu-sActRIIB-Fc was administered weekly alone or in combination with 5-FU.
# [2] = test system: ovarian tumors in Inhα KO mice; test: sActRIIB single dose, withdrawal and re-administration in female Inhα KO mice: ovarian tumor weight; type: in vivo, mouse
# Description: Eleven-to-fourteen-week-old female Inhα KO mice with body weight from 19.41 to 26.82 grams were subcutaneously (SC) injected with either 30 mg/kg sActRIIB or PBS. Age-matched WT littermate control mice were injected with PBS and served as baseline controls. The study ended by necropsy 2 weeks after injections. Two cohorts of mice were used in the study. Eleven-to-thirteen-week-old female Inhα KO mice with body weight from 17.7 to 27.4 grams were SC injected with either 30 mg/kg sAcLRIIB or PBS. Age-matched WT littermate control mice were injected with PBS and served as baseline controls. The withdrawal lasted for 8 weeks. At the end of the withdrawal, the sActRIIB treated mice were divided by balanced body weight into 2 groups (Group 3 and Group 4).
# Group 2 and Group 3 were euthanized to examine the ovarian tumors. Group 4 received another dose of 30 mg/kg sActRIIB and the mice were euthanized together with the WT mice 4 weeks later (total 12 weeks). Mouse body weights were recorded once per week up to 12 weeks. For necropsy, mice were euthanized in a CO2 chamber. Normal ovaries in WT mice and ovarian tumors in Inhα KO mice were collected and weighed. All results were expressed as the mean±standard error of the mean (SEM). Statistical significance of difference between groups was analyzed using Student's 2-tailed t-test on MS Excel 5.0 software. The Chi-Square test (GraphPad Software Inc, San Diego, CA) was used to examine the differences in animal survival time. Statistical significance between groups is represented by p<0.05 values.
# Ang-2 mRNA = test: Northern blot of Ang-2 mRNA in inh-KO tumors; type: in vivo, mouse; settings: ovarian and testicular tumors, inh-KO mice
# Description: Total RNA was isolated from individual tissue samples after homogenization in Trizol (Invitrogen). A pool of 10 μg RNA for each group containing equal amounts of total RNA isolated from individual animals was subjected to Northern blot analysis. The northern probes used for βA and Ang-2 were generated by using RT-PCR (Phusion, Biolabs). βA primer set: 5′-CCCTTGCTTTGGCTGAGAGGA-3′ (SEQ ID NO: 294) and 5′-TC ACA GGT CGT CGT AGG TCG-3′ (SEQ ID NO: 295); Ang-2 primer set: 5′-TGT GCC GGG GAG AAG AG (SEQ ID NO: 296) and 5′-TACAGTAGTGGGTTGAGGTTC-3′ (SEQ ID NO: 297). To normalize the expression, northern blot membranes were re-probed with β-actin.
# caspase-3 = test: Active caspase-3 immunostaining of inh-KO tumor sections; type: in vivo, mouse; settings: ovarian and testicular tissue sections, regions of residual tumor cells
# Description: Zinc-formalin fixed paraffin tumor tissue sections of 4 μm in thickness were prepared. The sections were subjected to antigen retrieval by microwave 3 min in Unmask solution (Vector H-3300) followed by incubation in 10 μg/ml Proteinase-K for 20 min and in 1% H2O2 in dH2O for 10 min at room temperature. The sections were further incubated in 0.1% Tween-20 in PBS for 3 min to permeabilize the cell membrane and in goat serum for 30 min to block non-specific binding. The sections were then incubated at room temperature with specific primary antibody for 3 hours followed by incubation in biotinylated or fluorescently labeled secondary antibody. Substrate developed in Vector SG kit (SK-4700) or DAB and nuclear-counterstained in Vector Fast Red (H-3403) or in hematoxylin. The immunostained tissue sections were analyzed and photographed using a Nikon Eclipse 90i microscope equipped with DS-Ril camera. The primary antibodies used and their dilutions are as follows: VEGF (BD Pharmingen 550549) 1:20 or VEGF (Abcam ab46154) 1:100, active caspase-3 (Abcam ab32042) 1:50, Ang-1 (Abcam ab8451) 1:500, osteopontin (Abcam ab8448) 1:200, CD-31 (Abcam ab56299) 1:100, E-cadherin (Abcam ab76319) 1:80. For immunofluorescence staining, FITC-conjugated secondary antibody (Invitrogen) was added at 1:50 dilution in PBS and incubated for 30 min. Cell nuclei were counterstained with Vectashield PE (Vector).
# [3] = test system: TOV-21G ovarian xenograft tumors; test: sActRIIB and doxorubicin in TOV-21G tumor-bearing nude mice: tumor size and weight; type: in vivo, human; settings: sActRIIB 10 mg/kg SC 1x/week, DOX 2 mg/kg IP 1x/week; 4-week study
# Description: The objective of the present study was to examine the effect of pharmacological administration of sActRIIB, doxorubicin (dox), and sActRIIB plus doxorubicin, respectively, on body weight, tumor growth and muscle mass in nude mice implanted with TOV-21G ovarian xenograft tumors. Eight-week-old female Athymic nude mice were SC injected with 0.2 mL of 5×10^6 TOV-21G cells into the left site of the lower flank of the mice. After 10 days of tumor implantation, the mice were divided into 4 groups by body weight and tumor size and then treated with vehicle, sActRIIB, doxorubicin or the combination of sActRIIB and doxorubicin. In addition, a group of non-tumor bearing mice was used as normal control and received PBS.
# Mice were weighed weekly. Body weight data were recorded longitudinally. Tumor size was measured longitudinally by using an electronic caliper. The following formula was used to calculate actual tumor volume (Tomayko M and Reynolds C, 1989): (Volume of a rectangular solid tumor: Tumor volume (mm^3)=length (mm)×width (mm)×height (mm) of tumor). At the end of the study, mice in all groups were subjected to terminal necropsy and lean carcass weight (excluding skin, adipose tissue, internal organs, and head) was determined by using standard anatomical dissection procedures. […] All results were expressed as the mean±SEM (standard error of the mean). […]
# E-cadherin = E-cadherin Western blot and immunostaining in inh-KO ovarian tumors; type: in vivo, mouse; settings: inh-KO mice
# Description: Protein extracts were prepared from cell cultures or tissues in T-PER tissue protein extraction reagent (Pierce) containing a mixture of protease inhibitors (Roche). A pool of 50 μg total protein for each group containing equal amounts of protein extract isolated from individual animals was separated by NuPAGE 4-12% Bis-Tris gel (Invitrogen) and transferred to PVDF. The membranes were probed with primary antibodies against total Smad2, p-Smad2 or E-cadherin (1:1000; Cell Signaling), endoglin, osteopontin (1:500; R & D Systems), IGFBP-1, IGFBP-2 (1:500; Abcam) followed by HRP-conjugated secondary antibody (1:2000; Cell Signaling). The membranes were stripped and re-probed with antibody against α-tubulin (1:1000; Cell Signaling).
# Zinc-formalin fixed paraffin tumor tissue sections of 4 μm in thickness were prepared. The sections were subjected to antigen retrieval by microwave 3 min in Unmask solution (Vector H-3300) followed by incubation in 10 μg/ml Proteinase-K for 20 min and in 1% H2O2 in dH2O for 10 min at room temperature. The sections were further incubated in 0.1% Tween-20 in PBS for 3 min to permeabilize the cell membrane and in goat serum for 30 min to block non-specific binding. […] The immunostained tissue sections were analyzed and photographed using a Nikon Eclipse 90i microscope equipped with DS-Ril camera. […]
molecule,measurement,setting,value
B1,body weight increase during the experiment,[1],26%
same,ovarian tumor weight at 8 weeks after withdrawal from the initial single dose,[2]; 30 mg/kg SC,grown in size similar to that of the PBS-treated Inhα KO mice
same,ovarian tumor weight two weeks after a single dose,[2]; 30 mg/kg SC,reduced to the WT control level
same,ovarian tumor mass at week 12 (4 weeks after re-administration),"[2]; re-administration 30 mg/kg at week 8, 30 mg/kg",effectively reduced the tumor mass; also recorded: effectively regressed the ovarian tumor mass to the size of the WT control group
same,Ang-2 mRNA expression in tumors,Ang-2 mRNA,inhibited its overexpression
same,active caspase-3 immunostaining,caspase-3,strong immunostaining of active caspase-3
same,tumor size and tumor weight vs vehicle-treated TOV-21G group,[3],capable of inhibiting TOV-21G tumor growth
same,E-cadherin immunoreactivity in ovarian sections,E-cadherin,reappearance of distinctive E-cadherin immunoreactivity
same,E-cadherin protein in ovarian tumors (Western blot),E-cadherin; single injection,dramatically restored the lost E-cadherin
